In publication PMC10687090, “The dimerized pentraxin-like domain of the adhesion G protein–coupled receptor 112 (ADGRG4) suggests function in sensing mechanical forces” (The Journal of Biological Chemistry, 2023):

What was measured:
[1] = target: the molecule itself; assay: SAXS; concentration series 0.27-9.15 mg/mL, 3 to 5% glycerol added; KD by nonlinear regression of experimental Rg^2 versus concentration (Equation 4) with theoretical Rg of monomer and dimer for zero to two N-glycosylations; dimer to monomers
[2] = target: the molecule itself; assay: static light scattering; DynaPro NanoStar, 20 °C, quartz cuvette, several protein concentrations; molecular mass increased with protein concentration; no significant change of hydrodynamic radii and molecular mass in the presence of Ca2+; monomer to dimer
[3] = target: the molecule itself; assay: SAXS Guinier Rg, model with 1x N-glycosylation

B1: PTX-like domain of the human ADGRG4 (residues 1-240) (domain or fragment, UniProt Q8IZF6-1 28-240, looked up)
chain: LKGKKLDFFGRGDTYVSLIDTIPELSRFTACIDLVFMDDNSRYWMAFSYITNNALLGREDIDLGLAGDHQQLILYRLGKTFSIRHHLASFQWHTICLIWDGVKGKLELFLNKERILEVTDQPHNLTPHGTLFLGHFLKNESSEVKSMMRSFPGSLYYFQLWDHILENEEFMKCLDGNIVSWEEDVWLVNKIIPTVDRTLRCFVPENMTIQEKS
modifications: N-glycosylated (heterogeneous; putative N-glycosylation sites N166 and N233)
notes: signal peptide in the construct: human ADGRG4 (GPR112) residues 1-240, UniProt Q8IZF6-1; residues 1 to 25 are a signal peptide and are not present in the secreted protein; residues 26-162 and 176-231 are resolved in the crystal structure; Expected monomer mass printed as 30.5 kDa; also called G4-PTX; ADGRG4-PTX
Kd [1]: 7 to 32 µM | stoichiometry N [2]: 2 | Kd [3]: 20 µM
